The Immune Epitope Database (IEDB)

Assays:
HLA-B*18:01 = test: IEDB peptide-MHC binding, purified MHC/competitive/fluorescence; filed as Kd, often an IC50 or EC50 that approximates it; ≥ and ≤ were set here for values at or beyond the usual limits of such assays
HLA-B*46:01 = test: as above
HLA-A*69:01 [1] = test: as above
HLA-B*57:01 = test: as above
HLA-B*51:01 [2] = test: as above
HLA-B*39:01 = test: as above
HLA-B*27:03 = test: as above
HLA-A*02:01 [3] = test: as above
HLA-B*15:17 = test: as above
HLA-A*02:12 = test: IEDB peptide-MHC binding, purified MHC/direct/fluorescence; filed as Kd, often an IC50 or EC50 that approximates it; ≥ and ≤ were set here for values at or beyond the usual limits of such assays
HLA-A*02:11 = test: as above
HLA-B*15:01 [4] = test: as above
HLA-A*02:19 = test: as above
HLA-A*02:16 = test: as above
HLA-A*03:01 [5] = test: as above
HLA-A*24:03 [6] = test: as above
HLA-A*68:02 = test: as above
HLA-A*02:03 = test: as above
HLA-A*11:01 [7] = test: IEDB peptide-MHC binding, purified MHC/competitive/fluorescence; ≥ and ≤ were set here for values at or beyond the usual limits of such assays
HLA-A*03:01 [8] = test: as above
HLA-A*11:01 [9] = test: IEDB peptide-MHC binding, purified MHC/competitive/fluorescence; filed as Kd, often an IC50 or EC50 that approximates it; ≥ and ≤ were set here for values at or beyond the usual limits of such assays
HLA-A*03:01 [10] = test: as above; conditions: source organism: Encephalitozoon cuniculi GB-M1
HLA-A*31:01 [11] = test: as above; conditions: source organism: Encephalitozoon cuniculi GB-M1
HLA-A*01:01 [12] = test: as above
HLA-A*29:02 = test: IEDB peptide-MHC binding, purified MHC/direct/fluorescence; filed as Kd, often an IC50 or EC50 that approximates it; ≥ and ≤ were set here for values at or beyond the usual limits of such assays
HLA-A*26:01 [13] = test: as above
HLA-A*24:03 [14] = test: IEDB peptide-MHC binding, purified MHC/competitive/fluorescence; filed as Kd, often an IC50 or EC50 that approximates it; ≥ and ≤ were set here for values at or beyond the usual limits of such assays; conditions: source organism: Lechiguanas virus
HLA-A*26:01 [15] = test: as above
HLA-B*51:01 [16] = test: IEDB peptide-MHC binding, purified MHC/direct/fluorescence; filed as Kd, often an IC50 or EC50 that approximates it; ≥ and ≤ were set here for values at or beyond the usual limits of such assays; conditions: source organism: West Nile virus
HLA-B*35:01 = test: as above
HLA-A*02:01 [17] = test: IEDB peptide-MHC binding, purified MHC/competitive/fluorescence; ≥ and ≤ were set here for values at or beyond the usual limits of such assays
HLA-B*15:01 [18] = test: as above; conditions: source organism: Sudan ebolavirus
HLA-B*27:05 = test: IEDB peptide-MHC binding, purified MHC/direct/fluorescence; filed as Kd, often an IC50 or EC50 that approximates it; ≥ and ≤ were set here for values at or beyond the usual limits of such assays; conditions: source organism: Yersinia pestis Nepal516
HLA-B*40:01 = test: as above; conditions: source organism: Yersinia pestis Nepal516
HLA-A*69:01 [19] = test: as above; conditions: source organism: Yersinia pestis Nepal516
HLA-B*07:02 = test: as above; conditions: source organism: Yersinia pestis Nepal516
HLA-A*11:01 [20] = test: as above; conditions: source organism: Yersinia pestis Nepal516
HLA-B*08:01 = test: as above; conditions: source organism: Yersinia pestis Nepal516
HLA-B*58:01 = test: as above; conditions: source organism: Yersinia pestis Nepal516
HLA-A*01:01 [21] = test: as above; conditions: source organism: Yersinia pestis Nepal516
HLA-A*02:01 [22] = test: as above; conditions: source organism: Yersinia pestis
HLA-B*44:02 = test: as above; conditions: source organism: Yersinia pestis Nepal516
HLA-A*31:01 [23] = test: as above; conditions: source organism: Yersinia pestis Nepal516
[24] = source organism: Araucaria virus
[25] = source organism: Vaccinia virus WR
[26] = source organism: Zaire ebolavirus
[27] = source organism: New York virus
[28] = source organism: Sudan ebolavirus
[29] = source organism: Lechiguanas virus
[30] = source organism: Rio Mamore hantavirus
[31] = source organism: Salmonella enterica subsp. enterica serovar Typhi
[32] = source organism: Vaccinia virus
[33] = source organism: Yersinia pestis
[34] = source organism: Yersinia pestis Nepal516

With AFMATNKAY the Kd (HLA-B*18:01; [24]) was ≥ 20 µM, the Kd (HLA-B*46:01; [24]) was ≥ 20 µM and the Kd (HLA-A*69:01 [1]; [24]) was ≥ 20 µM. The Kd (HLA-B*57:01; [24]) was ≥ 20 µM, the Kd (HLA-B*51:01 [2]; [24]) was ≥ 20 µM and the Kd (HLA-B*39:01; [24]) was ≥ 20 µM. The Kd (HLA-B*27:03; [24]) was ≥ 20 µM, the Kd (HLA-A*02:01 [3]; [24]) was ≥ 20 µM and the Kd (HLA-B*15:17; [24]) was ≥ 20 µM. For the same sequence, the Kd (HLA-A*02:12; [24]) was ≥ 20 µM, the Kd (HLA-A*02:11; [24]) was ≥ 20 µM and the Kd (HLA-B*15:01 [4]; source organism: Itapua hantavirus) was 0.0944 µM. For the same sequence, the Kd (HLA-A*02:19; [24]) was ≥ 20 µM, the Kd (HLA-A*02:16; [24]) was ≥ 20 µM and the Kd (HLA-A*03:01 [5]; [24]) was ≥ 20 µM. For the same sequence, the Kd (HLA-A*24:03 [6]; [24]) was ≥ 20 µM, the Kd (HLA-A*68:02; [24]) was ≥ 20 µM and the Kd (HLA-A*02:03; [24]) was ≥ 20 µM.

AFYTRVLKP was tested, and the IC50 (HLA-A*11:01 [7]; [25]) was 24.2 µM and the IC50 (HLA-A*03:01 [8]; [25]) was ≥ 202 µM.

In the case of AGLITGGRR, the IC50 (HLA-A*11:01 [7]; [26]) is reported as 6.55 µM and the IC50 (HLA-A*03:01 [8]; [26]) is reported as 69.9 µM.

Sequence CVNDGGLFY has a Kd (HLA-A*11:01 [9]; source organism: Encephalitozoon cuniculi GB-M1) of 0.11 µM, a Kd (HLA-A*03:01 [10]) of 1.01 µM and a Kd (HLA-A*31:01 [11]) of 0.692 µM.

With FTDPEIVAE the Kd (HLA-A*01:01 [12]; source organism: Escherichia coli O139:H28 str. E24377A) was ≥ 20 µM.

With FVKDWMDRI the Kd (HLA-B*18:01; [27]) was ≥ 20 µM, the Kd (HLA-B*46:01; [27]) was ≥ 20 µM and the Kd (HLA-A*69:01 [1]; [27]) was ≥ 20 µM. For the same sequence, the Kd (HLA-B*57:01; [27]) was ≥ 20 µM, the Kd (HLA-B*51:01 [2]; [27]) was ≥ 20 µM and the Kd (HLA-B*39:01; [27]) was ≥ 20 µM. For the same sequence, the Kd (HLA-B*27:03; [27]) was ≥ 20 µM, the Kd (HLA-A*02:01 [3]; [27]) was ≥ 20 µM and the Kd (HLA-B*15:17; [27]) was ≥ 20 µM. For the same sequence, the Kd (HLA-A*02:12; source organism: Choclo virus) was ≥ 20 µM, the Kd (HLA-A*29:02; source organism: Choclo virus) was ≥ 20 µM and the Kd (HLA-A*02:19; source organism: Choclo virus) was ≥ 20 µM. The Kd (HLA-A*02:16; source organism: Choclo virus) was ≥ 20 µM, the Kd (HLA-A*03:01 [5]; source organism: Choclo virus) was ≥ 20 µM and the Kd (HLA-A*24:03 [6]; source organism: Choclo virus) was ≥ 20 µM. For the same sequence, the Kd (HLA-A*26:01 [13]; source organism: Hantavirus Monongahela-3) was 0.0656 µM.

In the case of GVRGFPRCR, the IC50 (HLA-A*11:01 [7]; [28]) is reported as 33.2 µM and the IC50 (HLA-A*03:01 [8]; [28]) is reported as 1.12 µM.

In the case of ITDRLFFK, the Kd (HLA-A*11:01 [9]; source organism: Influenza A virus (A/California/04/2009(H1N1))) is reported as 0.175 µM.

LQPSDTLLF was tested, and the Kd (HLA-B*18:01; [29]) was ≥ 20 µM, the Kd (HLA-B*46:01; [29]) was ≥ 20 µM and the Kd (HLA-A*69:01 [1]; [29]) was ≥ 20 µM. For the same sequence, the Kd (HLA-B*57:01; [29]) was ≥ 20 µM, the Kd (HLA-B*51:01 [2]; [29]) was ≥ 20 µM and the Kd (HLA-B*39:01; [29]) was ≥ 20 µM. For the same sequence, the Kd (HLA-A*24:03 [14]) was 0.0049 µM, the Kd (HLA-B*27:03; [29]) was ≥ 20 µM and the Kd (HLA-A*02:01 [3]; [29]) was ≥ 20 µM. For the same sequence, the Kd (HLA-A*26:01 [15]; [29]) was ≥ 20 µM, the Kd (HLA-B*15:17; [29]) was ≥ 20 µM and the Kd (HLA-A*02:12; [30]) was ≥ 20 µM. The Kd (HLA-A*02:11; [30]) was ≥ 20 µM, the Kd (HLA-A*29:02; [30]) was ≥ 20 µM and the Kd (HLA-A*02:19; [30]) was ≥ 20 µM. The Kd (HLA-A*02:16; [30]) was ≥ 20 µM, the Kd (HLA-A*03:01 [5]; [30]) was ≥ 20 µM and the Kd (HLA-A*68:02; [30]) was ≥ 20 µM. For the same sequence, the Kd (HLA-A*02:03; [30]) was ≥ 20 µM.

For MVAYMLER, the Kd (HLA-A*11:01 [9]; source organism: Paramagnetospirillum magnetotacticum MS-1) was 3.25 µM.

Sequence MVEASGGRY has a Kd (HLA-A*01:01 [12]; [31]) of 0.122 µM and a Kd (HLA-A*26:01 [15]; [31]) of 1.42 µM.

For QPAFMVASF, the Kd (HLA-B*51:01 [16]) was ≥ 20 µM and the Kd (HLA-B*35:01; source organism: West Nile virus) was 0.007 µM.

With SLMEMDYER the IC50 (HLA-A*11:01 [7]; [32]) was 1.9 µM, the IC50 (HLA-A*03:01 [8]; [32]) was ≥ 155 µM and the IC50 (HLA-A*02:01 [17]; [32]) was 2.2 µM.

With SMIYFFHHY the Kd (HLA-A*01:01 [12]; source organism: Homo sapiens) was ≥ 20 µM.

For TQVEQHHRR, the IC50 (HLA-A*11:01 [7]; [26]) was 1.67 µM and the IC50 (HLA-A*03:01 [8]; [26]) was ≥ 138 µM.

For VIYRGVNFA, the IC50 (HLA-B*15:01 [18]) was ≥ 89.1 µM, the IC50 (HLA-A*11:01 [7]; [28]) was 25.1 µM and the IC50 (HLA-A*03:01 [8]; [28]) was 5.02 µM. The IC50 (HLA-A*02:01 [17]; [28]) was 3.89 µM.

In the case of YLHRDIFDI, the Kd (HLA-B*27:05) is reported as ≥ 20 µM, the Kd (HLA-B*15:01 [4]; [33]) is reported as 8.64 µM and the Kd (HLA-B*40:01) is reported as ≥ 20 µM. For the same sequence, the Kd (HLA-A*69:01 [19]) was ≥ 20 µM, the Kd (HLA-B*07:02) was ≥ 20 µM and the Kd (HLA-A*11:01 [20]) was ≥ 20 µM. For the same sequence, the Kd (HLA-B*08:01) was ≥ 20 µM, the Kd (HLA-A*03:01 [5]; [34]) was ≥ 20 µM and the Kd (HLA-B*35:01; [33]) was 0.113 µM. The Kd (HLA-A*24:03 [6]; [33]) was ≥ 20 µM, the Kd (HLA-B*58:01) was ≥ 20 µM and the Kd (HLA-A*01:01 [21]) was ≥ 20 µM. For the same sequence, the Kd (HLA-A*02:01 [22]) was 0.0365 µM, the Kd (HLA-A*26:01 [13]; [34]) was ≥ 20 µM and the Kd (HLA-B*44:02) was ≥ 20 µM. The Kd (HLA-A*31:01 [23]) was ≥ 20 µM.
